3 molecules from paper PMC9546227, “Cysteines have a role in conformation of the UVR8 photoreceptor” (The Plant Journal, 2022) can be followed below.

Data set [1] concerns the target T1, UV … LOCUS 8 (UVR8), wild-type, purified (Arabidopsis thaliana), Q9FN03.
T1 chain: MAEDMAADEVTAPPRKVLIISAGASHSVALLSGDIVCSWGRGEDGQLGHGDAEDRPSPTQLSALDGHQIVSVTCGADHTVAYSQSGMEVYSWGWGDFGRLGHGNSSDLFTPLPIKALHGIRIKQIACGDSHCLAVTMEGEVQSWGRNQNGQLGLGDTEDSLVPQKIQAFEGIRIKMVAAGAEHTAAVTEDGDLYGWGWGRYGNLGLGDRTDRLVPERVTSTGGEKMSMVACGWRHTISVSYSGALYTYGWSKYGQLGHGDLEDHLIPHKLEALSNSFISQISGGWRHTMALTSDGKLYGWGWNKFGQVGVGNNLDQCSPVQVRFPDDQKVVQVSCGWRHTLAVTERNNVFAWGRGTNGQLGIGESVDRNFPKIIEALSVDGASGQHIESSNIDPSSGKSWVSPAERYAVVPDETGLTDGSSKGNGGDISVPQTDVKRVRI
Kind of data set: SDS-PAGE with non-boiled samples; purified protein not exposed to UV-B; 10% gel, Coomassie stain; dimer to monomers. As to conditions: remark: other sources report otherwise.

Data set [2] deals with the molecule itself. Described as above.
Data set [3] deals with the molecule itself. In words: SDS-PAGE with non-boiled samples; protein extracts of 14-day-old plants not exposed to UV-B (also after return to white light following UV-B, re-dimerization); immunoblot with anti-UVR8-C; dimer to monomers. In general terms: Immunoblotting shows a protein as a band on a membrane.

As usually defined, the stoichiometry N is the number of molecules, sites or subunits per partner or assembly.

B1: UV … LOCUS 8 (UVR8), wild-type, purified, Q9FN03 1-440 (natural protein)
chain: MAEDMAADEVTAPPRKVLIISAGASHSVALLSGDIVCSWGRGEDGQLGHGDAEDRPSPTQLSALDGHQIVSVTCGADHTVAYSQSGMEVYSWGWGDFGRLGHGNSSDLFTPLPIKALHGIRIKQIACGDSHCLAVTMEGEVQSWGRNQNGQLGLGDTEDSLVPQKIQAFEGIRIKMVAAGAEHTAAVTEDGDLYGWGWGRYGNLGLGDRTDRLVPERVTSTGGEKMSMVACGWRHTISVSYSGALYTYGWSKYGQLGHGDLEDHLIPHKLEALSNSFISQISGGWRHTMALTSDGKLYGWGWNKFGQVGVGNNLDQCSPVQVRFPDDQKVVQVSCGWRHTLAVTERNNVFAWGRGTNGQLGIGESVDRNFPKIIEALSVDGASGQHIESSNIDPSSGKSWVSPAERYAVVPDETGLTDGSSKGNGGDISVPQTDVKRVRI
As to B1, the stoichiometry N in data set [1] was determined as 2.

B2: UVR8^C231S,C335S, purified (natural protein, Arabidopsis thaliana, UniProt Q9FN03 1-440, looked up)
chain: MAEDMAADEVTAPPRKVLIISAGASHSVALLSGDIVCSWGRGEDGQLGHGDAEDRPSPTQLSALDGHQIVSVTCGADHTVAYSQSGMEVYSWGWGDFGRLGHGNSSDLFTPLPIKALHGIRIKQIACGDSHCLAVTMEGEVQSWGRNQNGQLGLGDTEDSLVPQKIQAFEGIRIKMVAAGAEHTAAVTEDGDLYGWGWGRYGNLGLGDRTDRLVPERVTSTGGEKMSMVASGWRHTISVSYSGALYTYGWSKYGQLGHGDLEDHLIPHKLEALSNSFISQISGGWRHTMALTSDGKLYGWGWNKFGQVGVGNNLDQCSPVQVRFPDDQKVVQVSSGWRHTLAVTERNNVFAWGRGTNGQLGIGESVDRNFPKIIEALSVDGASGQHIESSNIDPSSGKSWVSPAERYAVVPDETGLTDGSSKGNGGDISVPQTDVKRVRI
notes: UVR8, Arabidopsis thaliana, with C231S and C335S; also called UVR8^SS; source: E. coli, purified (as detailed by Christie et al., 2012)
For the molecule B2, the “stoichiometry N” value in data set [2] worked out at 2.

B3: GFP-UVR8^C231S,C335S (uvr8-1/35Spro:GFP-UVR8^C231S,C335S plants) (natural protein, Arabidopsis thaliana, UniProt Q9FN03 1-440, looked up)
chain: MAEDMAADEVTAPPRKVLIISAGASHSVALLSGDIVCSWGRGEDGQLGHGDAEDRPSPTQLSALDGHQIVSVTCGADHTVAYSQSGMEVYSWGWGDFGRLGHGNSSDLFTPLPIKALHGIRIKQIACGDSHCLAVTMEGEVQSWGRNQNGQLGLGDTEDSLVPQKIQAFEGIRIKMVAAGAEHTAAVTEDGDLYGWGWGRYGNLGLGDRTDRLVPERVTSTGGEKMSMVASGWRHTISVSYSGALYTYGWSKYGQLGHGDLEDHLIPHKLEALSNSFISQISGGWRHTMALTSDGKLYGWGWNKFGQVGVGNNLDQCSPVQVRFPDDQKVVQVSSGWRHTLAVTERNNVFAWGRGTNGQLGIGESVDRNFPKIIEALSVDGASGQHIESSNIDPSSGKSWVSPAERYAVVPDETGLTDGSSKGNGGDISVPQTDVKRVRI
notes: UVR8, Arabidopsis thaliana, with C231S and C335S; Cloned into the pEZR(K)L-C vector by the methods of Cloix et al. (2012); also called GFP-UVR8^SS; source: transgenic Arabidopsis uvr8-1/CaMV35Spro:GFP-UVR8^C231S,C335S, in protein extract
Turning to B3, the “stoichiometry N” value in data set [3] is 2.
